Where a chain is given by its changes, count along the chain named.
Key:
TBPcore [1] = target: T1, TBPcore (UniProt P13393 61-240); test: EMSA; not impaired; EMSA: 3 nM DNA, 300 nM TBPcore, 3 uM TFIIB, 4 mM Tris-HCl pH 8.0, 60 mM KCl, 5 mM MgCl2, 4% glycerol, 1 mM DTT, 100 ug/ml BSA, 0.1% Tween 20, 50 ug/ml heparin; details: protein: recombinant; label: 5'-Cy5 on coding strand; blunt
T1 sequence: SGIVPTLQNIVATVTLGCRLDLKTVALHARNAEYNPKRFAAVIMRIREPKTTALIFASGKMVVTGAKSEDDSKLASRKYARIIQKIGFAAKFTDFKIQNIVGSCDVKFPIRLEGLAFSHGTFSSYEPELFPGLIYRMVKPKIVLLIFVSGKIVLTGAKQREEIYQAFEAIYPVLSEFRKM

TBPcore;TFIIB [2] = target: T2, TBPcore;TFIIB (Saccharomyces cerevisiae?;Saccharomyces …, UniProt P13393;P29055 61-240;1-345, |); test: as above; details: protein: recombinant;recombinant; tags: ;; copies: 1;1; label: 5'-Cy5 on coding strand; blunt
T2 sequence 1: T1 sequence
T2 sequence 2: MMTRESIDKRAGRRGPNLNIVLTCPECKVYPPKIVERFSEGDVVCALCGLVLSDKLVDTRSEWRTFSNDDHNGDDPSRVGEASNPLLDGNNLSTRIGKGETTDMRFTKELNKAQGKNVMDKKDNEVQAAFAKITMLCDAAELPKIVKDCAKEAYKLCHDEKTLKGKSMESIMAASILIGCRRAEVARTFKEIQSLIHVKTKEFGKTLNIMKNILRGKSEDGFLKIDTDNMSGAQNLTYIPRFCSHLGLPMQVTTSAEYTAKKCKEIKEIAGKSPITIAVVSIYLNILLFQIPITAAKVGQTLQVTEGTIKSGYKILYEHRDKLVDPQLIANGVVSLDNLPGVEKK

TBPcore [3] = target: T1, TBPcore; test: EMSA; GAE region not sufficient for binding; EMSA: 3 nM DNA, 300 nM TBPcore, 3 uM TFIIB, 4 mM Tris-HCl pH 8.0, 60 mM KCl, 5 mM MgCl2, 4% glycerol, 1 mM DTT, 100 ug/ml BSA, 0.1% Tween 20, 50 ug/ml heparin; details: protein: recombinant; label: 5'-Cy5 on coding strand; blunt
TBPcore;TFIIB [4] = target: T2, TBPcore;TFIIB; test: as above; details: protein: recombinant;recombinant; tags: ;; copies: 1;1; label: 5'-Cy5 on coding strand; blunt
TBPcore [5] = target: T1, TBPcore; test: EMSA; 300 nM TBPcore, 50 ug/ml heparin; EMSA: 3 nM DNA, 300 nM TBPcore, 3 uM TFIIB, 4 mM Tris-HCl pH 8.0, 60 mM KCl, 5 mM MgCl2, 4% glycerol, 1 mM DTT, 100 ug/ml BSA, 0.1% Tween 20, 50 ug/ml heparin; details: protein: recombinant; label: 5'-Cy5 on coding strand; blunt
TBPcore;TFIIB [6] = target: T2, TBPcore;TFIIB; test: EMSA; 300 nM TBPcore, 3 uM TFIIB, 50 ug/ml heparin; EMSA: 3 nM DNA, 300 nM TBPcore, 3 uM TFIIB, 4 mM Tris-HCl pH 8.0, 60 mM KCl, 5 mM MgCl2, 4% glycerol, 1 mM DTT, 100 ug/ml BSA, 0.1% Tween 20, 50 ug/ml heparin; details: protein: recombinant;recombinant; tags: ;; copies: 1;1; label: 5'-Cy5 on coding strand; blunt
TBPcore [7] = target: T1, TBPcore; test: EMSA; not affected vs TMT1 (GAE); EMSA: 3 nM DNA, 300 nM TBPcore, 3 uM TFIIB, 4 mM Tris-HCl pH 8.0, 60 mM KCl, 5 mM MgCl2, 4% glycerol, 1 mM DTT, 100 ug/ml BSA, 0.1% Tween 20, 50 ug/ml heparin; details: protein: recombinant; label: 5'-Cy5 on coding strand; blunt
TBPcore;TFIIB [8] = target: T2, TBPcore;TFIIB; test: as above; details: protein: recombinant;recombinant; tags: ;; copies: 1;1; label: 5'-Cy5 on coding strand; blunt

B1: TMT1 (TATA) (dsDNA)
DNA 1: ATTTTCATTTTTTATATAATATGTAACTAATTTAGT
DNA 2: ACTAAATTAGTTACATATTATATAAAAAATGAAAAT
TBPcore [1]
  binding result: binds
TBPcore;TFIIB [2]
  binding result: binds

B2: HIS4 (GAE) (dsDNA)
DNA 1: TAGTATACTGTGAAAGGAAAAGGAAGATATGGAACGTTAT
DNA 2: ATAACGTTCCATATCTTCCTTTTCCTTTCACAGTATACTA
TBPcore [3]
  binding result: no binding
TBPcore;TFIIB [4]
  binding result: no binding

B3: HIS4 (TATA) (dsDNA)
DNA 1: ACAGTAGTATACTGTGTATATAATAGATATGGAACGTTAT
DNA 2: ATAACGTTCCATATCTATTATATACACAGTATACTACTGT
TBPcore [5]
  binding result: binds
TBPcore;TFIIB [6]
  binding result: binds

B4: TMT1 (GAE) (dsDNA)
DNA 1: ATTTTCATTTTTAAAGGAAAAGGAATGTAACTAATTTAGT
DNA 2: ACTAAATTAGTTACATTCCTTTTCCTTTAAAAATGAAAAT
TBPcore [5]
  binding result: binds
TBPcore;TFIIB [6]
  binding result: binds

B5: TMT1 (A-12) (dsDNA)
DNA 1: B4 DNA 1 with G16A, G17A, G22A, G23A
DNA 2: B4 DNA 2 with C18T, C19T, C24T, C25T
TBPcore [7]
  binding result: binds
TBPcore;TFIIB [8]
  binding result: binds

— paper PMC3217976, “A Conserved GA Element in TATA-Less RNA Polymerase II Promoters”
